Laboratory results taken from paper PMC2665219 (Nucleic Acids Research, 2009).
Changes are numbered by the printed parent chain. Read-outs that look alike come from different tables or passages of the source.

What was measured:
Test in all cases: EMSA
EbfC [1] = target: T1, EbfC (Borrelia burgdorferi, UniProt O51418 1-99)
T1 sequence: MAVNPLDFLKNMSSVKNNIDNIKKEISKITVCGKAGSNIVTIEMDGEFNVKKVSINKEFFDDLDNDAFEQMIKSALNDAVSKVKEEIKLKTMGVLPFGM

EbfC K82A = target: T2, EbfC K82A (Borrelia burgdorferi, UniProt O51418 1-99, K82A)
T2 sequence: T1 sequence with K82A

EbfC N77A = target: T3, EbfC N77A (Borrelia burgdorferi, UniProt O51418 1-99, N77A)
T3 sequence: T1 sequence with N77A

EbfC D78A = target: T4, EbfC D78A (Borrelia burgdorferi, UniProt O51418 1-99, D78A)
T4 sequence: T1 sequence with D78A

EbfC K84A = target: T5, EbfC K84A (Borrelia burgdorferi, UniProt O51418 1-99, K84A)
T5 sequence: T1 sequence with K84A

EbfC K23A = target: T6, EbfC K23A (Borrelia burgdorferi, UniProt O51418 1-99, K23A)
T6 sequence: T1 sequence with K23A

EbfC E85A = target: T7, EbfC E85A (Borrelia burgdorferi, UniProt O51418 1-99, E85A)
T7 sequence: T1 sequence with E85A

EbfC K16A = target: T8, EbfC K16A (Borrelia burgdorferi, UniProt O51418 1-99, K16A)
T8 sequence: T1 sequence with K16A

EbfC K88A = target: T9, EbfC K88A (Borrelia burgdorferi, UniProt O51418 1-99, K88A)
T9 sequence: T1 sequence with K88A

EbfC D20A = target: T10, EbfC D20A (Borrelia burgdorferi, UniProt O51418 1-99, D20A)
T10 sequence: T1 sequence with D20A

EbfC [2] = target: T1, EbfC; remark: listed apart in the source

B1: b-WT (dsDNA)
DNA 1: TTGTAATGAGTAGTGCATTTGCAATGGAGAGATTTTGGGGAGTTGTTTAAAATTACATTTGCGTTTTGTTAAAATGTAACAGCTGAATGTAACAAAATTATATATTTAAATCTTTGAAATATTGC
DNA 2: GCAATATTTCAAAGATTTAAATATATAATTTTGTTACATTCAGCTGTTACATTTTAACAAAACGCAAATGTAATTTTAAACAACTCCCCAAAATCTCTCCATTGCAAATGCACTACTCATTACAA
EbfC [1]
  Kd: 313 nM
EbfC K82A
  binding result: no binding
EbfC N77A
  binding result: no binding
EbfC D78A
  binding result: no binding
EbfC K84A
  binding result: no binding
EbfC K23A
  binding result: no binding
EbfC E85A
  binding result: no binding
EbfC K16A
  binding result: no binding
EbfC K88A
  binding result: no binding
EbfC D20A
  binding result: no binding
EbfC [2]
  Kd: 388 ± 108 nM
